“Also recorded” adds a separate entry of the source.
Key:
[1] = test system: H1650 lung adenocarcinoma cell line; assay: MTT assay, growth inhibition of H1650 cell line; assay type: cell-based; conditions: 48 h and 72 h at 10 ng/μl
Experimental: (§1) The inhibition ratio (IR) and the half maximal inhibitory concentration (IC50) values are determined by a MTT assay.

[2] = test system: H1975 lung adenocarcinoma cell line; assay: MTT assay, growth inhibition of H1975 cell line; assay type: cell-based; conditions: 48 h and 72 h at 0.5 ng/μl and 10 ng/μl
Experimental: as §1

[3] = test system: HCC2935 lung adenocarcinoma cell line; assay: MTT assay, growth inhibition of HCC2935 cell line; assay type: cell-based; conditions: 72 h at 10 ng/μl only
Experimental: as §1

[4] = test system: A549 lung adenocarcinoma cell line; assay: MTT assay, growth inhibition of A549 cell line; assay type: cell-based; conditions: 48 h and 72 h at 0.5 ng/μl and 10 ng/μl
Experimental: as §1

[5] = test system: lung adenocarcinoma cell lines (H358, H1650, H1975, and HCC4006); assay: Intracellular arginine level by arginine ELISA kit; assay type: cell-based; conditions: all examined cell lines; IC50 concentrations and 0.1 μg/μl
Experimental: In one example embodiment, four lung adenocarcinoma cell lines (i.e. H358, H1650, H1975, and HCC4006), obtained from ATCC, are treated with PEG-BCT-100 at IC50 concentrations and 0.1 μg/μl. Internalization of PEG-BCT-100 by lung adenocarcinoma cells are assessed by immunocytochemistry using anti-PEG-antibodies. Detection is done using anti-rabbit Alexa 488 conjugated secondary antibody and visualization is performed using a fluorescent microscope. The PEG-BCT-100 treated lung adenocarcinoma cells are lysed in RIPA buffer for determination of arginine level by K7733 arginine ELISA kit from Immunodiagnostik.

[6] = test system: HCC4006 lung adenocarcinoma xenografts; assay: HCC4006 lung adenocarcinoma xenograft; assay type: in vivo, BALB/c nude mice
Experimental: In one example embodiment, ten million lung adenocarcinoma cells from cell lines H1650, H1975, and HCC4006 are engrafted subcutaneously in BALB/cnude mice (4 weeks old with body weight of 10-14 g). Body weight, clinical signs and survival times are recorded.
Two groups of the mice, with eight mice in each group, are tested. Control group (negative control) receives physiological saline and treatment group receives 20 mg/kg of PEG-BCT-100. PEG-BCT-100 is administered via intraperitoneal (IP) injection, twice weekly, until euthanization.
In one example embodiment, ten million lung adenocarcinoma cells from cell lines H1650, H1975 and HCC4006 are engrafted subcutaneously in BALB/cnude mice (4 weeks old with body weight of 10-14 g). Body weight, clinical signs and survival times are recorded.
Four groups of the mice, with eight mice in each group, are tested. Control group (negative control) receives physiological saline, and the three treatment groups respectively receive 20 mg/kg of PEG-BCT-100 alone, 2% w/v DFMO in drinking water, and combination of 20 mg/kg of PEG-BCT-100 and 2% w/v DFMO. PEG-BCT-100 is administered intraperitoneally, twice a week, until euthanization while DFMO is supplied in drinking water at 2% w/v.

B1: PEG-BCT-100: pegylated recombinant human arginase I (SEQ ID NO.1, or SEQ ID NO.3 with six histidines), about 6-12 PEG molecules per arginase (protein, UniProt P05089 1-322, looked up)
Arginase-1: MSAKSRTIGIIGAPFSKGQPRGGVEEGPTVLRKAGLLEKLKEQECDVKDYGDLPFADIPNDSPFQIVKNPRSVGKASEQLAGKVAEVKKNGRISLVLGGDHSLAIGSISGHARVHPDLGVIWVDAHTDINTPLTTTSGNLHGQPVSFLLKELKGKIPDVPGFSWVTPCISAKDIVYIGLRDVDPGEHYILKTLGIKYFSMTEVDRLGIGKVMEETLSYLLGRKKRPIHLSFDVDGLDPSFTPATGTPVVGGLTYREGLYITEEIYKTGLLSGLDIMEVNPSLGKTPEEVTRTVNTAVAITLACFGLAREGNHKPIDYLNPPK
modifications: PEG, about 6-12 per arginase; optional His6 tag
growth inhibition effect (cell proliferation) [1]: inhibits H1650 lung adenocarcinoma cell line proliferation more effectively than ADI
growth inhibition effect (cell proliferation) [2]: inhibits H1975 lung adenocarcinoma cell line proliferation
growth inhibition effect (cell proliferation / toxicity) [3]: induces toxicity in HCC2935 lung adenocarcinoma cell line
growth inhibition effect (cell proliferation) [4]: inhibits A549 lung adenocarcinoma cell line proliferation more effectively than ADI
intracellular (cytosolic) arginine level [5]: depletes intracellular arginine significantly; also recorded: able to deplete cytosolic arginine level significantly
tumour growth ([6]; PEG-BCT-100 20 mg/kg IP twice weekly, DFMO 2% w/v in drinking water, 20 mg/kg): suppresses tumor growth; also recorded: inhibits tumour growth
in vivo ASS1 expression (Western blot) ([6]; PEG-BCT-100 20 mg/kg vs control arm): remains unchanged
in vivo ODC expression (Western blot) ([6]; PEG-BCT-100 20 mg/kg vs control arm, 20 mg/kg): remains negative; also recorded: does not show upregulation of ODC

Reference: US20180271960A1, “METHOD TO TREAT CANCER USING ARGININE DELPETOR AND ORNITHINE DECARBOXYLASE (ODC) INHIBITOR” (Bio-Cancer Treatment International Ltd., priority 2015, published 2018)
